# ± gives the half width of the 95% confidence interval.
# Legend:
# [1] = folding stability dG unfold (combined trypsin and chymotrypsin); higher = more stable
# Procedure, shortened: (§1)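 Unfolding free energy was derived, per protease or combined, by relating Bayesian-fitted K50 values from sequencing counts to a sequence-predicted unfolded-state K50 and a shared folded-state K50. The underlying digests exposed cysteine-free mini-proteins under 80 residues, in a PA-tagged cDNA display construct, to trypsin and chymotrypsin at 11 threefold-diluted concentrations and to a no-protease condition. A filter kept only designs with AlphaFold2 dimer inter-PAE above 15.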
# [2] = folding stability dG unfold from chymotrypsin proteolysis; higher = more stable
# Procedure, shortened: as §1
# [3] = folding stability dG unfold from trypsin proteolysis; higher = more stable
# Procedure, shortened: as §1
Sequence,folding stability dG unfold [1],folding stability dG unfold [2],folding stability dG unfold [3]
SAGKEIIIPFRDIPPKYIKNQLKKFPPGKEIRIMFPGPEVADYLKEKGFPVRPERIKPITPDDMAKMMNSAG [r5_354_TrROS],-0.258 ± 0.28 kcal/mol,-0.186 ± 0.26 kcal/mol,-0.149 ± 0.4 kcal/mol
SAGKEKEIAEAIEEFLKEKGYDVKVKLIKVNPNNPNLSKVVLEVEVLGYLPDKKPLGKKRFKLVILGGSAGG [r19_418_TrMRF],2.52 ± 0.17 kcal/mol,2.72 ± 0.046 kcal/mol,2.64 ± 0.066 kcal/mol
SAGKEKEVKEVTIKIKIYVTNKNGEKKEITIEVKAKNKEDLLEALKKLGLSVEELKEKFPNIKIVEIEPSAG [r5_430_TrROS_Hall],4.01 ± 0.55 kcal/mol,4.05 ± 0.22 kcal/mol,2.3 ± 0.22 kcal/mol
SAGKELTIEIVIERNGELITLTIKAKSEEELLEALKKLLEELGFEVEDIKIEKKDGEVIVTVTIRLPKKSAG [r5_946_TrROS_Hall],3.43 ± 0.15 kcal/mol,3.83 ± 0.081 kcal/mol,2.7 ± 0.13 kcal/mol
SAGKETVKLVVVNKETNKVVEVTFNKDGEIVSVKVFEVKPAPPPPPVELSEEQLVKTKDGKWRSLEELKSAG [r5_685_TrROS_Hall],0.829 ± 0.11 kcal/mol,1.19 ± 0.075 kcal/mol,-0.369 ± 0.13 kcal/mol
SAGKIEIVEVTKNYVKIKIKNKKTNKTIEIKIPVKKKKGKKLSKEELEELAKKLAKELYPDMKIEVEKVSAG [r5_293_TrROS_Hall],3.31 ± 0.27 kcal/mol,3.86 ± 0.086 kcal/mol,2.24 ± 0.091 kcal/mol
SAGKIKIEVVKREDGYVVVKIRFEDTGEELVITVPKEDEEKVKELAEELAEKLKEEGIEVEVEVRELPPSAG [r5_815_TrROS_Hall],2.86 ± 0.22 kcal/mol,3.09 ± 0.21 kcal/mol,2.53 ± 0.11 kcal/mol
SAGKITITVEKNEDGELTVTIRIEKDGKPIEEITFESEEEALEAAKKLAEELKKKYPDLKIEVEIVPRPSAG [r5_383_TrROS_Hall],3.53 ± 0.64 kcal/mol,2.65 ± 0.22 kcal/mol,3.47 ± 0.27 kcal/mol
SAGKKIDPEALAKRILKEFGLPEDAEVEVEEIENTYIARFPEATALFTIEDDEVTVFLAPARPEPELAGSAG [r5_190_TrMRF],0.881 ± 0.18 kcal/mol,0.598 ± 0.18 kcal/mol,0.984 ± 0.11 kcal/mol
SAGKKIKLELYFEENGLKVEVEFDEETGVITVKVELKDGTRIEAKFELLPDGTLKLEIKIEKVKPGEKPSAG [r5_766_TrROS_Hall],3.49 ± 0.46 kcal/mol,3.87 ± 0.27 kcal/mol,2.94 ± 0.15 kcal/mol
SAGKKKKFKIVSVEVEVKEVNGKLVIKMKVKDKKTGKTYEITMTLKVVDKKTKKTYTKTLKVTIKLPKSAGG [r19_129_TrROS_Hall],4.04 ± 0.4 kcal/mol,4.44 ± 0.16 kcal/mol,3.46 ± 0.15 kcal/mol
SAGKKKKITIEIVIKPKTLEELENKIKEIAKKLGLKKIEKIEIVKIEKDKNGKIKKVVIKITLTEEALKSAG [r5_575_TrROS_Hall],2.61 ± 0.31 kcal/mol,3.25 ± 0.24 kcal/mol,1.51 ± 0.12 kcal/mol
SAGKKKKVVITIKVEKSEEEVKELVKKLAEEAKKKGKEVVIKIEVDGKTYEFTLEDIKKLPPNAKVTLLSAG [r5_626_TrROS_Hall],1.58 ± 0.44 kcal/mol,1.67 ± 0.096 kcal/mol,1.56 ± 0.11 kcal/mol
SAGKKPKVIEKTITIKVYDKKTKKEYEIKIKVRVVKKDGKVIEEFSEEEAKELAKKLAEELKKNKNIKPSAG [r5_426_TrROS_Hall],2.22 ± 0.14 kcal/mol,2.44 ± 0.04 kcal/mol,1.81 ± 0.097 kcal/mol
SAGKKSIVAPYEELKKIIELLPSGKKYKVIASDPNGKKIEGTIEVKGGKAKIEPGPKNTFKDLLIVITGSAG [r5_85_TrMRF],0.248 ± 0.12 kcal/mol,0.3 ± 0.13 kcal/mol,0.248 ± 0.061 kcal/mol
SAGKKTIMIFIPGNMPLDTLKSALRNLPPNVEIHIMYPGQMQTITYDPDDIEIELPPGFPNFYIMIEVPSAG [r5_373_TrROS],2.72 ± 0.057 kcal/mol,2.646 ± 0.017 kcal/mol,2.68 ± 0.13 kcal/mol
SAGKKVKINIKLPEGAKVTKIEFDKKTKTIKITIYDKNGKKVLEMTFVYKDKNGKYKIVKKITVYLKKPSAG [r5_434_TrROS_Hall],4.09 ± 0.27 kcal/mol,4.19 ± 0.068 kcal/mol,2.97 ± 0.27 kcal/mol
SAGKKVVIIEIEEVTNEDGEKEYKIRVLVKDEETGEVTEREITVKEGESIEDLIKKALEEGADEVIIVPSAG [r5_37_TrROS_Hall],4.12 ± 0.25 kcal/mol,4.15 ± 0.14 kcal/mol,3.98 ± 0.13 kcal/mol
SAGKKYVVVIDIEVKMPGKTKPRPIVIPVPEGETIKEQLSELPGLDNVKIKIQVIPPDQDPDFAGQPISAGG [r19_339_TrROS],1.2 ± 0.29 kcal/mol,1.76 ± 0.17 kcal/mol,0.569 ± 0.16 kcal/mol
SAGKLKPGDPVKIKIEIERDPGNGMVRVTYKIEFKDGMYVTMIIPPNGPIHVEIFNPDDGKEREETIPLSAG [r5_55_TrROS],2.46 ± 0.26 kcal/mol,2.67 ± 0.096 kcal/mol,2.15 ± 0.085 kcal/mol
SAGKMKIISVKIENNTITIEIYKDGKKIKKIEIKKNKKKIIIKIEIEPGEEIKIKIEINGKTYEITIKPSAG [r5_533_TrROS_Hall],4.11 ± 0.46 kcal/mol,4.64 ± 0.23 kcal/mol,2.89 ± 0.26 kcal/mol

Sequence,folding stability dG unfold [1],folding stability dG unfold [2],folding stability dG unfold [3]
SAGKMVKITITGPADKIKELLKKLFPNAEVEVKKVNGKLVFYFKPGEEVIEIEITDKDGNKLTIKIEKVSAG [r5_123_TrROS_Hall],3.48 ± 0.17 kcal/mol,3.74 ± 0.087 kcal/mol,2.54 ± 0.066 kcal/mol
SAGKPEWKLVETIEVTIEVPPGVTVEEIEKKLLEALKEKGIKEVKIEVTYDKENKTITVRVEVLVKKEKSAG [r5_924_TrROS_Hall],1.66 ± 0.26 kcal/mol,1.92 ± 0.11 kcal/mol,1.27 ± 0.13 kcal/mol
SAGKPKKKIKIKLYNVDTGEEIEIEVTVEELKKLLEKLGFEVVKIEYDEETGEVTIYVKVDGYYLEIEESAG [r5_521_TrROS_Hall],3.41 ± 0.28 kcal/mol,3.55 ± 0.13 kcal/mol,2.63 ± 0.16 kcal/mol
SAGKPKKKKRTITIPIEHNPNNGNFTIKIRWPGRPVTVPFPGDDPEEMLDNMLNELENRLGWPIDEVEISAG [r5_251_TrROS],0.429 ± 0.23 kcal/mol,-0.116 ± 0.27 kcal/mol,0.932 ± 0.069 kcal/mol
SAGKPKPEETVTLVLEVPKENPIKVEELFEKLPDVKFVEVKVEPLPDDRVLITITVLPEDVEKIKKALGSAG [r5_554_TrMRF],2.76 ± 0.13 kcal/mol,2.13 ± 0.069 kcal/mol,3.58 ± 0.28 kcal/mol
SAGKPKVKVETVTIEVDGKKIKIEVVELENGEKLVRVEVFDENGELVETKTVTLEELKKLLEKAGIEVSAGG [r19_90_TrROS_Hall],1.84 ± 0.28 kcal/mol,2.2 ± 0.16 kcal/mol,1.64 ± 0.1 kcal/mol
SAGKPVKVTLNVVRLPGTGELVVFAEITYPDGSTAYAVARADLATGTVHVKLFDPNGKLLAELTVTLKPSAG [r14_524_TrMRF],4.4 ± 0.096 kcal/mol,4.62 ± 0.11 kcal/mol,3.64 ± 0.2 kcal/mol
SAGKRMPVEEIANELAKEFPPGQTREVPIRNEDGGEWITLTVYHPNGKPVWKITIRPDGEIEVEWVPLSAGG [r19_0_TrROS],1.94 ± 0.088 kcal/mol,2.31 ± 0.024 kcal/mol,0.889 ± 0.042 kcal/mol
SAGKSIKILITTEKEEEAKKLAEEIKKELPKLGYKVEVYIMPKEEFEKFLKEFVVPEPDGKLVKVDLSSAGG [r19_187_TrMRF],1.48 ± 0.19 kcal/mol,2.09 ± 0.1 kcal/mol,0.482 ± 0.056 kcal/mol
SAGKSKPILVEITFPNGEKAKVLAVEFPNTVYVFAVVTSKDGSKYLVEAIIDVSPTKIKIFTKSYPLESAGG [r19_385_TrMRF],3.64 ± 0.081 kcal/mol,4.1 ± 0.043 kcal/mol,2.56 ± 0.1 kcal/mol
SAGKTIVLPPEMTKEQIEALAKELAEEEGFEKVELVEYDEEKGVFTVKVKVDGKEKTIEIKIVSPEELESAG [r5_912_TrROS_Hall],2.3 ± 0.084 kcal/mol,2.622 ± 0.022 kcal/mol,1.62 ± 0.046 kcal/mol
SAGKTIVVPTEEEAEKLAKELAEETGKEVEIVKVEKEKKKDGYEVYTIKVKLKDNNKTIEIKIVRPKEKSAG [r5_173_TrROS_Hall],1.55 ± 0.25 kcal/mol,1.47 ± 0.11 kcal/mol,1.52 ± 0.17 kcal/mol
SAGKTRTINFPGFQIQVQRDPDGKKEITIMFDNPEQRKQMIEQNPFLREFIEWAEKDGLKVEIHVMPPKSAG [r14_873_TrROS],2.06 ± 0.18 kcal/mol,2.04 ± 0.15 kcal/mol,1.85 ± 0.071 kcal/mol
SAGKTVTKTKTEYEYKDGKLEKKKVKTETIEPKPKIEVKEVKITLKDGSEVTAKIVSIDPKTKKVVIELSAG [r5_735_TrROS_Hall],0.0452 ± 0.23 kcal/mol,-0.0238 ± 0.075 kcal/mol,0.26 ± 0.099 kcal/mol
SAGKVKLTIMIHPMRKNGKPRYYVMVKIEIPGGPKAEIMFPFDSPEQAKNLLEDLGLKVEPEDISIMRWSAG [r5_233_TrROS],1.94 ± 0.051 kcal/mol,1.94 ± 0.12 kcal/mol,1.89 ± 0.022 kcal/mol
SAGLIKIERTGDKLTITIPLKGAPPGAQVRIMVFTDGKVEEHWIPPGKEVEITIPPDNIHIFIQIYPPDSAG [r5_867_TrROS],3.33 ± 0.32 kcal/mol,3.15 ± 0.14 kcal/mol,3.22 ± 0.38 kcal/mol
SAGLKEIAKKLGLSEEKIKIKEIKKKKKVVYDKKTKKKYEKEEIVIKIEIVDPKTKKKYEIEIPLEEIKSAG [r5_517_TrROS_Hall],2.55 ± 0.22 kcal/mol,2.63 ± 0.18 kcal/mol,2.28 ± 0.18 kcal/mol
SAGLKFSITKAEWENGYLTVKVMVTGPDGQSQPFTITIRIKPVPKPPPKMTEEKDPNGKKKWEYKDPDSAGG [r19_172_TrROS],2.47 ± 0.24 kcal/mol,2.6 ± 0.072 kcal/mol,2.26 ± 0.11 kcal/mol
SAGLKIVEDIRKKLEEEGYDVKVKYEIKPEPKDGKYIITIEVTIKDEKGNEVPIGKETIVIPLEEYEKSSAG [r5_413_JUSTAS],2.28 ± 0.16 kcal/mol,2.74 ± 0.083 kcal/mol,1.27 ± 0.18 kcal/mol
SAGLKVKIVKAEVKNGYLTLEVEVTGKDGSKKPFKIKIKLKPVPKPKPVFKFTKLPNGEIKVEVFDPSSAGG [r19_172_TrMRF],3.04 ± 0.08 kcal/mol,3.212 ± 0.03 kcal/mol,2.76 ± 0.062 kcal/mol
